This note sets out measurements from patent publication US20040241845A1 (UNIVERSIT DE MONTR AL, published 2004).

Assay [1] has as its target T1, Staufen/YFP fusion protein (human, UniProt O95793 82-577).
T1 construct: BRET acceptor, expressed in live 293T cells; also called pCMV-Staufen/YFP; not shown: YFP of pCMV-GFP-Topaz (red-shifted GFP variant of Aequorea victoria GFP); its substitutions and the junction are not pri
T1 sequence: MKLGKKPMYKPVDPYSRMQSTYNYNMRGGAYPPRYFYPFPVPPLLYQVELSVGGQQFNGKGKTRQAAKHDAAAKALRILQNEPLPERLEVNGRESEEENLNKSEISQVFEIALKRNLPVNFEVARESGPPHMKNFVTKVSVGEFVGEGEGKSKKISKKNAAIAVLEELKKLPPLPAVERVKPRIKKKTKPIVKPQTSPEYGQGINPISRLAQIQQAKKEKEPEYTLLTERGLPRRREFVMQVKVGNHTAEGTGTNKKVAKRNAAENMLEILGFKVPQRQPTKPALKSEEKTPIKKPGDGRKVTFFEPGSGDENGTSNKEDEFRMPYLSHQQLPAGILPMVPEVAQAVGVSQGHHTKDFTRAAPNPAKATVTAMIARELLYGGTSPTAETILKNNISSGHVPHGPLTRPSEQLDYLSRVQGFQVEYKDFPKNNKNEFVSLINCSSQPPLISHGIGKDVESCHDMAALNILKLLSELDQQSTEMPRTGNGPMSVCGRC
Put plainly: BRET in live 293T cells.

Assay [2] has as its target HIV-1 CA (processed form of pr55Gag, CAp24/p25) (HIV-1 (pNL4-3), UniProt P12493 133-363). Put plainly: co-immunoprecipitation with anti-HA.
Assay [3] deals with T2, HIV-1 pr55Gag (Gag precursor expressed from pNL4-3 proviruses) (HIV-1 (pNL4-3), UniProt P12493 2-500).
T2 construct: In lysates of transfected 293T cells; The anti-CA antibody also pulls down pr41Gag and CAp24/p25
Put plainly: co-immunoprecipitation with anti-CA, Western with anti-HA.

B1: NC/Rluc (other)
chain: MQRGNFRNQRKIVKCFNCGKEGHTARNCRAPRKKGCWKCGKEGHQMKDCTERQAN
notes: domain: NC; not shown: Renilla reniformis luciferase (Rluc) of pRluc-N1(h)
Turning to B1, the binding result in assay [1] was “binds”.

B2: p6/Rluc (other)
chain: LQSRPEPTAPPEESFRSGVETTTPPQKQEPIDKELYPLTSLRSLFGNDPSSQ
notes: domain: p6; not shown: Renilla reniformis luciferase (Rluc) of pRluc-N1(h)
For B2, the binding result in assay [1] was “no binding”.

B3: Staufen-HA (wild-type human Staufen, short isoform, HA-tagged) (other)
chain: MKLGKKPMYKPVDPYSRMQSTYNYNMRGGAYPPRYFYPFPVPPLLYQVELSVGGQQFNGKGKTRQAAKHDAAAKALRILQNEPLPERLEVNGRESEEENLNKSEISQVFEIALKRNLPVNFEVARESGPPHMKNFVTKVSVGEFVGEGEGKSKKISKKNAAIAVLEELKKLPPLPAVERVKPRIKKKTKPIVKPQTSPEYGQGINPISRLAQIQQAKKEKEPEYTLLTERGLPRRREFVMQVKVGNHTAEGTGTNKKVAKRNAAENMLEILGFKVPQRQPTKPALKSEEKTPIKKPGDGRKVTFFEPGSGDENGTSNKEDEFRMPYLSHQQLPAGILPMVPEVAQAVGVSQGHHTKDFTRAAPNPAKATVTAMIARELLYGGTSPTAETILKNNISSGHVPHGPLTRPSEQLDYLSRVQGFQVEYKDFPKNNKNEFVSLINCSSQPPLISHGIGKDVESCHDMAALNILKLLSELDQQSTEMPRTGNGPMSVCGRC
notes: Expressed in 293T cells from the pNL4-3/Staufen-HA chimeric provirus (in the nef reading frame) or from a Staufen-HA expressor (pcDNA3-RSV-hStau-HA); Runs as a 60 kDa band; also called hStau/HA; HA-hStau
Take B3: the binding result in assay [2] is on record as “no binding”.

B4: Staufen F135A-HA (full-length Staufen with a point mutation in dsRBD3) (other)
chain: MKLGKKPMYKPVDPYSRMQSTYNYNMRGGAYPPRYFYPFPVPPLLYQVELSVGGQQFNGKGKTRQAAKHDAAAKALRILQNEPLPERLEVNGRESEEENLNKSEISQVFEIALKRNLPVNFEVARESGPPHMKNAVTKVSVGEFVGEGEGKSKKISKKNAAIAVLEELKKLPPLPAVERVKPRIKKKTKPIVKPQTSPEYGQGINPISRLAQIQQAKKEKEPEYTLLTERGLPRRREFVMQVKVGNHTAEGTGTNKKVAKRNAAENMLEILGFKVPQRQPTKPALKSEEKTPIKKPGDGRKVTFFEPGSGDENGTSNKEDEFRMPYLSHQQLPAGILPMVPEVAQAVGVSQGHHTKDFTRAAPNPAKATVTAMIARELLYGGTSPTAETILKNNISSGHVPHGPLTRPSEQLDYLSRVQGFQVEYKDFPKNNKNEFVSLINCSSQPPLISHGIGKDVESCHDMAALNILKLLSELDQQSTEMPRTGNGPMSVCGRC
notes: Expressed from the pNL4-3/StaufenF135A-HA chimeric provirus
B4: the binding result in assay [3] was “no binding”.

B5: p2-p1/Rluc (other)
chain: AEAMSQVTNSATIMMQRGNFRNQRKIVKCFNCGKEGHTARNCRAPRKKGCWKCGKEGHQMKDCTERQANFLGKIWPSYKGRPGNF
notes: domain: p2-p1; not shown: Renilla reniformis luciferase (Rluc) of pRluc-N1(h)
In the case of B5, the binding result in assay [1] is recorded as “binds”.

B6: MA/Rluc (other)
chain: MGARASVLSGGELDRWEKIRLRPGGKKKYKLKHIVWASRELERFAVNPGLLETSEGCRQILGQLQPSLQTGSEELRSLYNTVATLYCVHQRIEIKDTKEALDKIEEEQNKSKKKAQQAAADTGHSNQVSQNY
notes: domain: MA; not shown: Renilla reniformis luciferase (Rluc) of pRluc-N1(h)
B6: the binding result in assay [1] is reported as “no binding”.
